# Experimental data as given in US11001846B2, “Aptamers, nucleic acid molecules, polynucleotides, synthetic antibodies compositions for detecting PRRS viruses and treating PRRS virus infection” (AEROVIRUS TECHNOLOGIES INC., priority 2015, dated 2021).
# “Also recorded” adds a separate entry of the source.
# Columns and labels:
# type 2 PRRSV = conditions: after MTT screening of 10 candidates
# Description: Using various tetrazolium (MTT) colorimetric assay procedures^[xxxvi], these aptamers have been “screened” to identify the ones having the highest and fastest binding capabilities for detection and therapeutics purposes for both types of PRRSV. It should be pointed out that the aptamer having the quickest binding efficiency but not necessarily the highest binding strength is the most suitable one for the biosensor.
# [1] = tested on: intact PRRS virus (LHVA-93-3); assay: ELISA binding to intact PRRS virus; parameters: species or system PRRSV; conditions: vs control ssDNA or between aptamers, FIG. 8a
# LHVA-93-3 PRRS virus = assay: In-vivo lung virus titer, LHVA-93-3, comparison with control oligonucleotide and Tilmicosin (Example 4); parameters: species or system swine; conditions: LHVA-93-3; FIG. 13b
# Method: Swine were inoculated intranasally with sub-lethal infectious fluid containing 40TCID50/ml PRRS virus (LHVA-93-3) with or without 2.5 nmole A505 aptamer for different time intervals. Pig body weight was monitored for 2 weeks. Viral titer in the lungs was determined by the CPE titration method (OIE Terrestrial Manual—May 2015, Chapter 2.8.7—Porcine Reproductive and Respiratory Syndrome, section 1.1.3). Other pigs were sacrificed 6 days following viral inoculation and lungs were removed and homogenized in PBS 0.1% BSA (10% w/v). Following homogenization, samples were centrifuged to remove debris and stored at −80° C.
# The cells/viruses were incubated for 2-5 days and observe daily for a CPE. At day 2, seed macrophages in new microtitre plates. Fifty (50) μl of the supernatants were transferred from the plates of the first passage to the corresponding wells of the freshly seeded plates (second passage). The wells were incubated for 2-5 days and observed daily for a CPE. The results of the CPE assays were presented as log TCID50.
# Tilmicosin (Pulmotil®) was purchased from Eli Lilly (Elanco®), Canada.
# Were implemented as described hereinabove. A dose of 15 ug/Kg of A505 was used.
# The ability of the A505 aptamer to inhibit PRRSV infection was also compared to that of one of the currently available “anti-PRRSV” drugs, the antibiotic Tilmicosin. To this end, both A505 and Tilmicosin were administered once, together with the virus, using the intra-nasal route. As is shown in Table 2 below, a dose of 60 mg/pig of Tilmicosin (1 mg/kg body weight) reduced virus titer by 0.42 log TCID50, representing a 2.6-fold reduction in virus burden. This is in comparison to a reduction by 1.21 log TCID50 affected by A505 in this particular experiment (over 10 fold reduction in virus burden).
# LHVA-3 PRRS virus = assay: MTT assay, in vitro protection of PAMs or MARC-145 cells from LHVA-3 infection; assay type: cell-based, PRRSV; conditions: 500 pmole; LHVA-3 and NVSL; FIG. 9b
# Method: PAMs or MARC-145 cells were plated in 96 well plates (7×10^4/well) one day prior to the assay. […] Following infection, cells were incubated in growth medium at 37° C. for 72 hours. MTT assay was performed by adding 4 mg/ml MTT (3-[4,5-Dimethylthiazol-2-yl]-2,5-diphenyltetrazolium bromide dissolved in PBS to the cell cultures and incubation at 37° C. for 3 hours. Plates were then centrifuged at 800×g for 10 min. Supernatants were aspirated and the formazan dye was dissolved in 150 μl/well of isopropyl alcohol, and O.D. values were determined with an ELISA reader at 570 nm.
# In Vitro Viral Protection Prior to Viral Infection PAMs or MARC-145 cells were plated on 96 well plates (7×10^4/well) 24 hours prior to the experiment. Each well was washed twice with DPBS prior to treating the cells with various amounts of A505 (12.5 to 2000 pmole) at 37° C. for the indicated time points. […] Following incubation, cells were transferred to growth medium and incubated at 37° C. for 72 hours. Thereafter an MTT assay was implemented as described.
# In Vitro Viral Protection Following Viral Infection—PAMs or MARC-145 cells were plated on 96 well plates (7×10^4/well) 24 hours prior to viral infection. Viral infection was effected as described above. Infected cells were gently washed with DPBS for 3 times. Cells were then treated with various amounts of A505 (12.5 to 2000 pmole) for 1 hour at 37° C. Following incubation, cells were transferred to growth medium and incubated at 37° C. for 72 hours. Thereafter an MTT assay was implemented as described.
# [2] = tested on: M-S-S-GP5 peptidic complex; assay: ELISA reverse screening: binding to M-S-S-GP5 peptidic complex, type 2; conditions: type 2 PRRSV complex
# Method: ssDNA aptamers were denatured at 80° C. for 10 min and then cooled on ice for 10 min. Aptamers (30 nmole) were mixed with 25 μg of M-S-S-GP5 peptidic complex (further described in Example 6 below) in 500 μl selection buffer (50 mM Tris-HCl; pH 7.4, 5 mM KCl, 100 mM NaCl, 1 mM MgCl2 tRNA, 0.2% BSA) at 37° C. for 30 min. Aptamer-peptide complex was purified by adding the 25 μl Ni-NTA superflow and amplified by PCR using primers directed to the common T3 sequences in the aptamer library, and 3′-primer (i.e. -[…]-3′). SELEX was repeated 3 times, following which amplified nucleotides were transformed into E. coli. PCR conditions for SELEX included 5 min 95° C./1 min 95° C./1 min 55° C./1 min 72° C./10 min 72° C. and 100 pmole of each primer.
# Selected ssDNA molecules from each individual clone were biotinylated using the B-T3 which is same sequence with 5′ primer (T3 primer), and Klenow fragment (2 unit/ml). To prepare single stranded biotin conjugated CoocSeq5 aptamer for the reverse screening, T3 Primer was Biotin labelled. A 96-well flat bottom ELISA plate was prepared by coating each well with 100 μl of streptavidin (100 μg/ml) diluted in 0.1 M NaHCO3 following by a 37° C. overnight incubation. Following several washings with PBS, wells were blocked with 200 μl of PBS containing 1% BSA for 2 hours at room temperature and subsequent washing three times with PBS-T (10 mM PBS containing 0.05% (v/v) Tween-20). […]
# High binding capacity ELISA plates (Immunoplate, Nunc) were coated with 100 μl allantoic fluid containing 500 TCID50 of various PRRS virus strains diluted in phosphate buffered saline (PBS) by incubating at 4° C. overnight. […] Following this incubation period, plates were washed five times in PBS-T and bound antibodies were detected using horseradish peroxidase labelled goat anti-mouse IgG conjugates (HRP). […] Reaction was terminated with 50 μl of 2M H2SO4, plates were read with a multichannel spectrophotometer at 570 nm.
molecule,measurement,setting,value
"A508: ssDNA aptamer binding type 2 PRRSV M-S-S-GP5 complex (nucleic acid, DNA, backbone and methylation of C not given here) DNA: GGGCGACCCTGAAGAGACTGGTGAGTTAATGTTTTTTCTTAGCCTTGTATCGAAACGGTGAAAGCCGTAGGTTGCCC",binding capabilities from biosensing and therapeutic perspectives,type 2 PRRSV,highest binding capabilities
same,binding level to the intact virus,[1],significant binding
same,change in lung virus titer,LHVA-93-3 PRRS virus,less effective than A505 was still capable of reducing the lung virus titer
same,in-vitro infectivity of the viruses / cell mortality,LHVA-3 PRRS virus,capable of reducing the in-vitro infectivity of the viruses
same,binding to the M-S-S-GP5 complex/heterodimer,[2],highly significant differences from the control ssDNA; also recorded: binding capacity to the M-S-S-GP5 complex; also recorded: found to bind the M-S-S-GP5 heterodimer
